In the DeepSol protein solubility set:

Assay: soluble on expression in E. coli; label from the status in PepcDB or PDB records

Soluble on expression in E. coli, soluble:
MFPFGHKGQKIKGTMVVMQKNVLDINSITSVDGIVGTGLDFLGSALDTVTFLASSISIQLISATKADGGKGKVGKATNLRGKITLPTIGAKEEAYDAQFDWDSDFGIPGAFYIKNYMQNEFYLKSLILEDIPNHGTIHFICNSWVYNSKHYKTDRIFFANNTYLPSETPAPLVKYREEELKNVRGDGTGERKEWDRIYDYDVYNDLGDPDKGEKYARPVLGGSALPYPRRGRTGRGKTRKDPNSEKPGDFVYLPRDEAFGHLKSSDFLAYGIKSVAQDVLPVLTDAFDGNLLSLDFDNFAEVRKLYEGGVTLPTNFLSNITPIPIIKELFRTDGEQFLKYPPPKVMQVDKSAWMTDEEFARETIAGLNPNVIKIIEEFPLSSKLDTQAYGDHTCIITKEHLEPNLGGLTVEQAIQNKKLFILDHHDYLIPYLRKINANTTKTYATRTIFFLKNDGTLTPLAIELSKPHPQGEEYGPVSEVYVPSSEGVEAYIWLLAKAYVVVNDACYHQIISHWLNTHAVVEPFVIATNRHLSVVHPIYKLLFPHYRDTMNINSLARKSLVNADGIIEKTFLWGRYSLEMSAVIYKDWVFTDQALPNDLVKRGVAVKDPSAPHGVRLLIEDYPYASDGLEIWDAIKSWVEEYVSFYYKSDEELQKDPELQAWWKELVEVGHGDLKDKPWWQKMQTREELVEASATLIWIASALHAAVNFGQYPYGGLILNRPTISRRFMPEKGSPEYDALAKNPEKEFLKTITGKKETLIDLTIIEILSRHASDEFYLGQRDGGDYWTSDAGPLEAFKRFGKNLEEIEKKLIEKNNDETLRNRYGPAKMPYTLLYPSSEEGLTFRGIPNSISI
SWKRNKFRLTYVAEAPDLTQGLSNVHKKRVSAARLLSRQNLQSPKSSRSTIFVRLHTNGNQELQYQPGDHLGVFPGNHEDLVNALIERLEDAPPANHVVKVEMLEERNTALGVISNWKDESRLPPCTIFQAFKYYLDITTPPTPLQLQQFASLATNEKEKQRLLVLSKGLQEYEEWKWGKNPTMVEVLEEFPSIQMPATLLLTQLSLLQPRYYSISSSPDMYPDEVHLTVAIVSYHTRDGEGPVHHGVCSSWLNRIQADDVVPCFVRGAPSFHLPRNPQVPCILVGPGTGIAPFRSFWQQRQFDIQHKGMNPCPMVLVFGCRQSKIDHIYREETLQAKNKGVFRELYTAYSREPDRPKKYVQDVLQEQLAESVYRALKEQGGHIYVCGDVTMAADVLKAIQRIMTQQGKLSEEDAGVFISRLRDDNRYHEDIFGV
MFVDRIVLSFRGAGLERANTCLRKGQRLRKACSHVFRPLCSSDLPVNLPTDLETKRVMKPPLAERESIWSYPRPPRVEPNTRHLRVVHNQVTIAETRRGYRVLEYSHPPSYYIPLDDIDLQYVMVSSKVRSTFCEFKGEATYYDVEVGWEVSEGAAWSYDFPTRAYRMLKDHIAFYPAKVDACWVDEYRVRPEPRSFYGGWVTPLVKGVYPEEDVEDDEDSSGGDGKDSATQ

Soluble on expression in E. coli, not soluble:
MDDSTLTELEAAAFRRLVAHLRERTDVQNIDLMNLAGFCRNCLSNWLKDAADAQGVAMSRDESREAVYGMPYETWKAKYQSTATPDQVEAFKKSHPHSH
MLQPILSISGKSGLFRLVSRGKNTLIVEALDTKRRTPTYPSDRVVSLGDISIYTIEDDVPLPEVMETIYRKNEGKQLDAPALTKDNDSLRAFFGEVLPEYDVDRVYPSDIRKIISWYNLLVDNGFTTFLSDKKPAEEETTEKE
MSNEMYYVQASDPAILEKGECGGAVTALFKYLLDKGIVDGVLALKKGVDVYDAIPTFVTSSEDLLSTAGSLHCAPTMWGGIIKEYLQDAKIAVPVKPCDMRAIVELAKRAQINLDNVYMIGLNCGGTVPPKTAMEMIKLFYEVDPKDVVKEEIDKGKFIIVMKDGSHKEVKMHDLEDNGYGRRVNCQRCDEKIPRKADIAAGNWGVIGEDAGKYTFMEVCTEKGKQLLKDAEKDGYVKTKAPNPKGLEIRAKVESSMLKMGEDYKNKWLEEKYPTIEEWNRQWNKCIKCYGCRDVCPVCFCRECALTADYVDTGSIPPDPIMFQGVRMSHMAFSCVNCGQCEDVCPMEIPVARIFHKIQEKTRKELGYRPGVDDEAPPALGGSCPTQLEHHHHHH
MGSDKIHHHHHHMTMTKKDALLLAAKELFGEYGYSETTFKKISERAGVALGLLTHHYGNKEKLFLAAGLDVLDRFIVYLQDACAKGNNGYESVMNFCRAYLDFSIDKNEHFMVLVRCSPYSDMKTKTDRDIMYEKFNQVPRELEYHVRRGIEDGSLKSLPAYETTTVLTCNLVGSIRTKLLTPYAPPSLYDDVLEFISRSIKA
